# Measured values published in patent publication US8518883B2, “Method of reducing deleterious effects of ischemia by administration of a thrombopoietin receptor ligand” (MCW Research Foundation, Inc., priority 2006, dated 2013).
# “Also recorded” adds a separate entry of the source.
# Tests used:
# Format in all cases: in vivo, rat
# Sprague Dawley rats [1] = assay: Coronary artery ligation model, delayed cardioprotection, Tpo given 24 hours before ischemia; conditions: Tpo 0.05 micrograms/kg 24 hours before 30 min regional ischemia, 3 hours reperfusion
# Procedure: Animals used in this study were adult male Sprague Dawley rats (200-350 g, generally 300 g). Animals were housed under standard conditions and allowed to feed ad lib.
# Rats were anesthetized with sodium pentobarbital (50 mg/kg i.p.). Heparin was administered (150 U/kg i.p.) to prevent the formation of a thrombus in the coronary vasculature. A myocardial infarction was produced via the ligation of the left main artery using 6-0 prolene suture (See, e.g., Clements-Jewery, et al., supra, 2002; Farkas et al., supra, 2002). The left main coronary artery was identified and ligated with a 5-0 Prolene suture threaded through a polyethylene tube to act as an occluder. A control group included sham operated hearts in which only a suture was passed around the left main coronary artery was performed.
# Animals were treated with Tpo (0.05 micrograms/kg) administered intraperitoneally and the animals allowed to recover for 24 hours prior to the onset of ischemia. Regional ischemia and reperfusion were induced by tightening the occluder and by releasing it. Hearts were then subjected to 30 minutes regional ischemia followed by 3 hours reperfusion. […]
# (§1) The heart was sectioned in 2 mm segments from apex to atrio-ventricular groove in a transverse fashion. Each segment was recorded and placed in formalin. […] The percentage of infarction of each slide was expressed as a percentage of the entire area of the heart.
# Sprague Dawley rats [2] = assay: Coronary artery ligation model, Tpo given after the onset of reperfusion; conditions: Tpo 0.05 μg/kg i.v. 10 seconds following reperfusion after 30 min regional ischemia
# Procedure: FIG. 10 is a graphic depiction of the effect of Tpo (0.05 μg/kg) on myocardial infarct size in vivo (as percentage % of area at risk) when administered intravenously 10 seconds after the onset of 3 hours reperfusion following 30 minutes regional myocardial ischemia in vivo induced by suture ligation of the left main coronary artery. *=P<0.05, with Tpo vs. without Tpo (control).
# Animals used in this study were adult male Sprague Dawley rats (200-350 g, generally 300 g). Animals were housed under standard conditions and allowed to feed ad lib. The Animal Care and Use Committee of the Medical College of Wisconsin approved all procedures performed in accordance with the regulations adopted by the National Institutes of Health.
# A myocardial infarction was produced via the ligation of the left main artery using 6-0 prolene suture (See, e.g., Clements-Jewery, et al., supra, 2002; Farkas, et al., supra, 2002). Rats were anesthetized with sodium pentobarbital (50 mg/kg i.p.). The left main coronary artery was identified and ligated with a 5-0 Prolene suture threaded through a polyethylene tube to act as an occluder. […]
# as §1
# rats = assay: Platelet count and hematocrit after single Tpo treatment
# Procedure: Prior to treatment, platelet counts in untreated rats were 850±96 10^3/ul, and the hematocrit in untreated rats was 43.8±1.8%.
# FIG. 13A/B is a plot of additional data (mean±standard deviation, n+6 per group) that evaluated a single dose of Tpo (1.0 μg/kg i.v.) on platelet count and hematocrit. There was no effect.
# [3] = single Tpo 0.05 μg/kg i.v., 14 day follow up
# [4] = single Tpo 1.0 μg/kg i.v., 28 day follow up
substance,measurement,setting,value
Thrombopoietin [Tpo],Myocardial infarct size,Sprague Dawley rats [1],decrease
same,Myocardial infarct size,Sprague Dawley rats [2],decrease
same,Hematocrit,rats; [3],remained unchanged; also recorded: did not result in an increased
same,Platelet count,rats; [3],remained unchanged; also recorded: did not result in an increased
same,Hematocrit,rats; [4],no effect
same,Platelet count,rats; [4],no effect
